According to article PMC11960969, “Mdga2 deficiency leads to an aberrant activation of BDNF/TrkB signaling that underlies autism-relevant synaptic and behavioral changes in mice” (PLOS Biology, 2025):

Test system: hippocampal proteins
Assay: DIA quantification proteomics, hippocampus of Mdga2+/- vs WT mice
Parameters: species or system mouse
Conditions: S3 Table, downregulated DEPs; for log2FC: Mdga2+/- vs WT mouse hippocampus (HET-HIP-VS-WT-HIP), SE, pvalue and adj_pvalue in own columns c3-c5; for Class: regulation class of the protein, HET-HIP-VS-WT-HIP
Experimental: The hippocampus of 1.5–2-month-old Mdga2^ +/− male mice and their WT littermate controls was collected and sent to the BGI company for DIA quantification proteomics and data analysis. Briefly, samples were lysed and sonicated. After centrifugation, the supernatant was taken for quantification. Equal amounts of proteins (100 μg) per sample were subjected to trypsin enzymatic hydrolysis. After dryness, 10 μg enzymatic peptides per sample were separated by high-pH fractionation into a total of 10 fractions using high-performance liquid chromatography (HPLC) and freeze-dried. Data-dependent acquisition (DDA) fractions and DIA samples were analyzed by nano-LC–MS/MS. DDA data was identified by Andromeda search engine within MaxQuant. Identified results were used by Spectronaut^TM for spectral library construction. For DIA data, Spectronaut^TM used the constructed spectral library information to complete deconvolution and extraction, and used the mProphet algorithm to complete analytical quality control for obtaining reliable quantitative results. The mass spectrometry proteomics data have been deposited to the ProteomeXchange Consortium via the PRIDE [62] partner repository with the dataset identifier PXD050810. DEPs between comparison groups were identified based on the quantitative results, using the fold change >1.1 and p-value <0.05 as the criteria. After retrieval from the UniProtKB database, identified DEPs were processed for GO analysis by using DAVID (https://david.ncifcrf.gov/home.jsp) and Metascape database (https://metascape.org/gp/index.html).

Row | Molecule | log2FC | Class
1 | sp¦Q6A0D4¦RFTN1_MOUSE (protein, UniProt Q6A0D4 2-554, looked up) Raftlin: GCSLNKLEKREEKRPGNIYSTLKRPQVETKVDVTYEYCFLEFTTLTAAELPRSSATRLASLRDLPDQLLELYQQGFSLAALHPFVQPTRRQEKILLEHIFRAILVKKTNRSQKAELHDEGYTLELDYCSSLEHLADQKLIPEFIKKVQEAASQGLKFVSVVPQYQPSVSSAGSRRLKPVANSVEDARDVKCTLGDRSSLENDTPKAAETDAATAGVNRRPETKPGSTGDVPSAQQPGIPSPSAENEAGEFPLRGLQPALDRSEGDPSNGPEELPSRKMEIFAFFNRPKSQQKCRQYYPVTIPLQVSKNGQTVSSLDASWLEHMSDHFRKGGVLVNAVFQLGMANDSFYGLTDGVFIFEAVSTEDNRTTQGYDAIVVEQWTVLEGTEVQTDYMPLLNSLAAYGWQLTCVLPTPILKTTREGNVSTKQIVFLQRPCLPQKTKKRESKFQWRFSRNEIHGRQTRKSKGKLSASNKQQAEENEKNLEDQFSKAGDVGNCVLGAPQWGRASEVREQRQGSAAVQNGPAGHNRDSVALRHSNPRAEAELAAGPTPTEAN | -1.516 | Down
2 | sp¦Q8BTY2¦S4A7_MOUSE (protein, UniProt Q8BTY2 1-1034, looked up) Sodium bicarbonate …: MEADGAGEQMRPLLTRGPDEEAVVDLGKTSSTVNTKFEKEELESHRAVYVGVHVPFSKESRRRHKHRGHKHHHRRRKDKDSDKEDGRESPSYDTPSQRVQFILGTEDDDEEHIPHDLFTEMDELCYRDGEEYEWKETARWLKFEEDVEDGGDRWSKPYVATLSLHSLFELRSCILNGTVMLDMRASTLDEIADMVLDNMIASGQLDDSIRENVREALLKRHHHQNEKRFTSRIPLVRSFADIGILASPQSAPGNLDNSKSGEMKGNGSGGSRENSTVDFSKVDMNFMRKIPTGAEASNVLVGEVDFLERPIIAFVRLAPAVLLSGLTEVPVPTRFLFLLLGPAGKAPQYHEIGRSIATLMTDEIFHDVAYKAKDRNDLLSGIDEFLDQVTVLPPGEWDPSIRIEPPKSVPSQEKRKIPVFPNGSAAMSVGPPKEDDHHAGPELQRTGRLFGGLILDIKRKAPFFLSDFKDALSLQCLASILFLYCACMSPVITFGGLLGEATEGRISAIESLFGASLTGIAYSLFAGQPLTILGSTGPVLVFEKILFKFCRDYHLSYLSLRTSIGLWTSFLCIVLVATDASSLVCYITRFTEEAFAALICIIFIYEALEKLFHLGEIYAFNMHNNLDELTSYTCVCAEPSNPSNETLELWKRKNITAYSVSWGNLTVSECKTFHGMFVGSACGPHGPYVPDVLFWCVVLFFTTFFLSSFLKQFKTKGYFPTKVRSTISDFAVFLTIVIMVAIDYLVGIPSPKLHVPEKFEPTDPSRGWIISPLGDNPWWTLLIAAVPALLCTILIFMDQQITAVIINRKEHKLKFIPMPVLYGVFLYMGVSSLKGIQFFDRIKLFGMPAKHQPDLIYLRYVPLWKVHVFTVVQLTCLVLLWVIKASAAAVVFPMMVLALVFVRKLMDLCFTKRELSWLDDLMPESKKKKEDDKKKKEKEEAERMLQDDEDTVHLPFERGSLLQIPVKTLKYSIDPSVVNISDEMAKTAQWKALSMNTENAKVTRPNTSPEKPVSVTINFEDEPSKKYMDAETSL | -1.445 | Down
3 | sp¦Q61097¦KSR1_MOUSE (protein, UniProt Q61097 1-873, looked up) Kinase suppressor of Ras 1: MDRAALRAAAMGEKKEGGGGGAAADGGAGAAVSRALQQCGQLQKLIDISIGSLRGLRTKCSVSNDLTQQEIRTLEAKLVKYICKQQQSKLSVTPSDRTAELNSYPRFSDWLYIFNVRPEVVQEIPQELTLDALLEMDEAKAKEMLRRWGASTEECSRLQQALTCLRKVTGLGGEHKMDSGWSSTDARDSSLGPPMDMLSSLGRAGASTQGPRSISVSALPASDSPVPGLSEGLSDSCIPLHTSGRLTPRALHSFITPPTTPQLRRHAKLKPPRTPPPPSRKVFQLLPSFPTLTRSKSHESQLGNRIDDVTPMKFELPHGSPQLVRRDIGLSVTHRFSTKSWLSQVCNVCQKSMIFGVKCKHCRLKCHNKCTKEAPACRITFLPLARLRRTESVPSDINNPVDRAAEPHFGTLPKALTKKEHPPAMNLDSSSNPSSTTSSTPSSPAPFLTSSNPSSATTPPNPSPGQRDSRFSFPDISACSQAAPLSSTADSTRLDDQPKTDVLGVHEAEAEEPEAGKSEAEDDEEDEVDDLPSSRRPWRGPISRKASQTSVYLQEWDIPFEQVELGEPIGQGRWGRVHRGRWHGEVAIRLLEMDGHNQDHLKLFKKEVMNYRQTRHENVVLFMGACMNPPHLAIITSFCKGRTLHSFVRDPKTSLDINKTRQIAQEIIKGMGYLHAKGIVHKDLKSKNVFYDNGKVVITDFGLFGISGVVREERRENQLKLSHDWLCYLAPEIVREMIPGRDEDQLPFSKAADVYAFGTVWYELQARDWPFKHQPAEALIWQIGSGEGVRRVLASVSLGKEVGEILSACWAFDLQERPSFSLLMDMLERLPKLNRRLSHPGHFWKSADINSSKVMPRFERFGLGTLESGNPKM | -1.493 | Down
4 | sp¦Q8C5W0¦CLMN_MOUSE (protein, UniProt Q8C5W0 1-1052, looked up) Calmin: MAAQEWDWFQREELIGQISDIRVQNLQVERENVQKRTFTRWINLHLEKCDPPLEVTDLFVDIQDGKILMALLEVLSGRNLLHEYKSSSHRIFRLNNIAKALKFLEDSNVKLVSIDAAEIADGNPSLVLGLIWNIILFFQIKELTGNLSRSSPSSSLSPGSGGTDSDSSYPPTPTTERSVAVAVKDQRKAIKTLLSWVQRKTRKYGVAVQDFAGSWRSGLAFLAVIKAIDPSLVDMKQALEDSTRDNLEKAFSIAHDSLHIPRLLEPEDIMVDMPDEQSIVTYVAQFLERFPELEPEDFVNPDKEAPIESTFVRIKESPSEQGSRVLLLSENGERAYTVNQETSYPPPDKVFVCDQLESPTGFCLDSAPSHKLSDSSTEFMHEIIDQVLQGSTGKTGSIAEPTPESSILSTRKDGRRSNSLPVKKTVHFEADLHKDASCSKDPFYSSDFRFEGSPKATKELSKQDGHVSLAEVSKEKKKSEQEARLVLEAASDKVPESTVDGLDAVPQDAQPSQDSSFCNGTVESPSSQGEKGPPPSSPGDHTLLANSTELKVQLLTVEPMDKEDYFECIPLKASKFNRDLVDFASTSQAFGEDPSSHEKTRGEEEGSENHAEKPGKRKSKSPRAETEAAESRLEPKKLEPPPKDPEQEDQGHALPPETPADKKPKVYEKAKRKSTRHHSEEEGEAESGFSAVCEEEIPSAPPSTSVSLETLRSHSEEGLDFKPSPPLSKISVIPHDLFYYPHYEVPLAAVLEAYAEGGEDLKSEDTDLEHPEDSYLQDSREEEADEDEEEAQSSQSSCSFSLPVDNSYPSVSEHVSHVDGSSEGPTSALGPGSPPSHEDHQPKETKENGPVESQQSQEPPNPELPTKPLEEKLTEASTSSKKKEKRKHMDHVESSLFIAPGTVRSSDDLEENSSEHKVPSRNSHSDSSIYIRRHTNRSLELDHFSYVQLRNAADLDDRRNRVLNRYNSQKLTELILQFYGIRADMKREYKHARLSMTGTNSSGEAVPLGNQSPPNDSLTQFVQQPDVIYFILFLWLLVYCLLLFPQLDVSRL | -1.505 | Down
5 | sp¦P48381¦RFX3_MOUSE (protein, UniProt P48381 1-749, looked up) Transcription factor RFX3: MQTSETGSDTGSTVTLQTSVASQAAVPTQVVQQVPVQQQVQQVQTVQQVQHVYPAQVQYVEGSDTVYTNGAIRTTTYPYTETQMYSQNTGGNYFDTQGSSAQVTTVVSSHSMVGTGGIQMGVTGGQLISSSGGTYLIGNSMENSGHSVTHTTRASPATIEMAIETLQKSDGLSTHRSSLLNSHLQWLLDNYETAEGVSLPRSTLYNHYLRHCQEHKLDPVNAASFGKLIRSIFMGLRTRRLGTRGNSKYHYYGIRVKPDSPLNRLQEDMQYMAMRQQPMQQKQRYKPMQKVDGVADGFTGSGQQTGTSVEQTVIAQSQHHQQFLDASRALPEFGEVEISSLPDGTTFEDIKSLQSLYREHCEAILDVVVNLQFSLIEKLWQTFWRYSPSTPADGTTITESSNLSEIESRLPKAKLITLCKHESILKWMCNCDHGMYQALVEILIPDVLRPIPSALTQAIRNFAKSLEGWLSNAMNNIPQRMIQTKVAAVSAFAQTLRRYTSLNHLAQAARAVLQNTSQINQMLSDLNRVDFANVQEQASWVCQCDDNMVQRLETDFKMTLQQQSTLEQWAAWLDNVMMQALKPYEGRPSFPKAARQFLLKWSFYSSMVIRDLTLRSAASFGSFHLIRLLYDEYMFYLVEHRVAQVTGETPIAVMGEFGDLNAVSPGNLDKDEGSEVESETDEDLDDSSEPRAKREKTELSQAFPVGCMQPVLESAVQPSLLNPLHSEHIVTSTQTIRQCSATGNTYTAV | -1.5061 | Down
6 | sp¦Q7TT15¦GLT17_MOUSE (protein, UniProt Q7TT15 1-598, looked up) Polypeptide …: MASLRRVKVLLVLNLIAVAGFVIFLAKCRPIAVRSGDAFHEIRPRAEVANLSAHSASPIQDAVLKRLSLLEDIVYRQLNGLSKSLGLIEGYGGRGKGGLPATLSPSEEEKAKGPHEKYGYNSYLSEKISLDRSIPDYRPTKCKELKYSKELPQISIIFIFVNEALSVILRSVHSAVNHTPTHLLKEIILVDDNSDEEELKAPLEEYVHKRYPGLVKVVRNQKREGLIRARIEGWKAATGQVTGFFDAHVEFTAGWAEPVLSRIQENRKRVILPSIDNIKQDNFEVQRYENSAHGYSWELWCMYISPPKDWWDAGDPSLPIRTPAMIGCSFVVNRKFFGEIGLLDPGMDVYGGENIELGIKVWLCGGSMEVLPCSRVAHIERKKKPYNSNIGFYTKRNALRVAEVWMDDYKSHVYIAWNLPLENPGIDIGDVSERKALRKSLKCKNFQWYLDHVYPEMRRYNNTIAYGELRNNKAKDVCLDQGPLENHTAILYPCHGWGPQLARYTKEGFLHLGALGTTTLLPDTRCLVDNSKSRLPQLLDCDKVKSSLYKRWNFIQNGAIMNKGTGRCLEVENRGLAGIDLILRSCTGQRWAIKNPIK | -1.487 | Down
